Results published in paper PMC6056499, “A systematic dissection of sequence elements determining β-Klotho and FGF interaction and signaling” (Scientific Reports, 2018).

The binders below were run against human β-Klotho extracellular domain (aa1–992) fused with a 6 × His tag at the C-terminus, Q86Z14 (assay: solid-phase binding assay). Conditions: chain shown with the change;; parent: est. 1.0; read off a plot.
Chain of human β-Klotho extracellular domain (aa1–992) fused with a 6 × His tag at the C-terminus, Q86Z14 (Q86Z14 53-992): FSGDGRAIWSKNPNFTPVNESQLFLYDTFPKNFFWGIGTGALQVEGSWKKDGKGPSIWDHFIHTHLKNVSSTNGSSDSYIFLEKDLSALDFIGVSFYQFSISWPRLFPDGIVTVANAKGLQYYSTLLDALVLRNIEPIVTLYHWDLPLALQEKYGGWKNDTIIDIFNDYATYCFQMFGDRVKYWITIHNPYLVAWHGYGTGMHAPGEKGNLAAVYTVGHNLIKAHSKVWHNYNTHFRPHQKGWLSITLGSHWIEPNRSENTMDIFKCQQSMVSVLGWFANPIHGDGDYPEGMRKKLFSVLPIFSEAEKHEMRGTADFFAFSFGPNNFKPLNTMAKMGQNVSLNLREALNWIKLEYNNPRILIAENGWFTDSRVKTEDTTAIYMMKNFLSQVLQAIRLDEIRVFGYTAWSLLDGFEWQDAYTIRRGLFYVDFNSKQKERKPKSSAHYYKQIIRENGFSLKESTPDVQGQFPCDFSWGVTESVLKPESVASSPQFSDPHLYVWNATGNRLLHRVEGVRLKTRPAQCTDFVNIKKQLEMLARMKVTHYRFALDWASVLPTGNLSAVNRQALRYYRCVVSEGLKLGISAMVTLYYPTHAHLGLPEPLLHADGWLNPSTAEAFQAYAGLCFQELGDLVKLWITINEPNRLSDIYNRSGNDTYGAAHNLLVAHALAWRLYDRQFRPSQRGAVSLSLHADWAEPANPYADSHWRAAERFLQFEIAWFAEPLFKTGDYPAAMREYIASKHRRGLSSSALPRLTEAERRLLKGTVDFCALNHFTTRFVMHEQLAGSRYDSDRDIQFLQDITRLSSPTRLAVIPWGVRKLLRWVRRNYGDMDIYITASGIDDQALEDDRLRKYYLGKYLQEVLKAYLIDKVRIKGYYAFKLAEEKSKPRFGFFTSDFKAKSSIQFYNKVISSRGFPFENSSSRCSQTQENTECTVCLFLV

ratio to parent	Binder
0.6	mature human FGF21 polypeptide fused with the human Fc fragment at the N-terminus (Fc-FGF21), wild type, Q9NSA1 191S-A (protein) HPIPDSSPLLQFGGQVRQRYLYTDDAQQTEAHLEIREDGTVGGAADQSPESLLQLKALKPGVIQILGVKTSRFLCQRPDGALYGSLHFDPEACSFRELLLEDGYNVYQSEAHGLPLHLPGNKSPHRDPAPRGPARFLPLPGLPPALPEPPGILAPQPPDVGSADPLSMVGPSQGRSPSYAS
530	mature human FGF21 polypeptide fused with the human Fc fragment at the N-terminus (Fc-FGF21), wild type, Q9NSA1 207Y-R (protein) HPIPDSSPLLQFGGQVRQRYLYTDDAQQTEAHLEIREDGTVGGAADQSPESLLQLKALKPGVIQILGVKTSRFLCQRPDGALYGSLHFDPEACSFRELLLEDGYNVYQSEAHGLPLHLPGNKSPHRDPAPRGPARFLPLPGLPPALPEPPGILAPQPPDVGSSDPLSMVGPSQGRSPSRAS
180	mature human FGF21 polypeptide fused with the human Fc fragment at the N-terminus (Fc-FGF21), wild type, Q9NSA1 207Y-A (protein) HPIPDSSPLLQFGGQVRQRYLYTDDAQQTEAHLEIREDGTVGGAADQSPESLLQLKALKPGVIQILGVKTSRFLCQRPDGALYGSLHFDPEACSFRELLLEDGYNVYQSEAHGLPLHLPGNKSPHRDPAPRGPARFLPLPGLPPALPEPPGILAPQPPDVGSSDPLSMVGPSQGRSPSAAS
120	mature human FGF21 polypeptide fused with the human Fc fragment at the N-terminus (Fc-FGF21), wild type, Q9NSA1 204S-A (protein) HPIPDSSPLLQFGGQVRQRYLYTDDAQQTEAHLEIREDGTVGGAADQSPESLLQLKALKPGVIQILGVKTSRFLCQRPDGALYGSLHFDPEACSFRELLLEDGYNVYQSEAHGLPLHLPGNKSPHRDPAPRGPARFLPLPGLPPALPEPPGILAPQPPDVGSSDPLSMVGPSQGRAPSYAS
170	mature human FGF21 polypeptide fused with the human Fc fragment at the N-terminus (Fc-FGF21), wild type, Q9NSA1 206S-R (protein) HPIPDSSPLLQFGGQVRQRYLYTDDAQQTEAHLEIREDGTVGGAADQSPESLLQLKALKPGVIQILGVKTSRFLCQRPDGALYGSLHFDPEACSFRELLLEDGYNVYQSEAHGLPLHLPGNKSPHRDPAPRGPARFLPLPGLPPALPEPPGILAPQPPDVGSSDPLSMVGPSQGRSPRYAS

The remaining lines, values behind:

Binder	ratio to parent
mature human FGF21 polypeptide fused with the human Fc fragment at the N-terminus (Fc-FGF21), wild type, Q9NSA1 206S-A (protein) HPIPDSSPLLQFGGQVRQRYLYTDDAQQTEAHLEIREDGTVGGAADQSPESLLQLKALKPGVIQILGVKTSRFLCQRPDGALYGSLHFDPEACSFRELLLEDGYNVYQSEAHGLPLHLPGNKSPHRDPAPRGPARFLPLPGLPPALPEPPGILAPQPPDVGSSDPLSMVGPSQGRSPAYAS	120
mature human FGF21 polypeptide fused with the human Fc fragment at the N-terminus (Fc-FGF21), wild type, Q9NSA1 204S-R (protein) HPIPDSSPLLQFGGQVRQRYLYTDDAQQTEAHLEIREDGTVGGAADQSPESLLQLKALKPGVIQILGVKTSRFLCQRPDGALYGSLHFDPEACSFRELLLEDGYNVYQSEAHGLPLHLPGNKSPHRDPAPRGPARFLPLPGLPPALPEPPGILAPQPPDVGSSDPLSMVGPSQGRRPSYAS	250
mature human FGF21 polypeptide fused with the human Fc fragment at the N-terminus (Fc-FGF21), wild type, Q9NSA1 191S-R (protein) HPIPDSSPLLQFGGQVRQRYLYTDDAQQTEAHLEIREDGTVGGAADQSPESLLQLKALKPGVIQILGVKTSRFLCQRPDGALYGSLHFDPEACSFRELLLEDGYNVYQSEAHGLPLHLPGNKSPHRDPAPRGPARFLPLPGLPPALPEPPGILAPQPPDVGSRDPLSMVGPSQGRSPSYAS	350
